According to PMC5557881:

Columns and labels:
[1] = target: mSPE-7 IgE from the NS1 hybridoma (mouse anti-dinitrophenyl IgE) (mouse); assay: SEC-MALLS; peak B of the Superdex 200 Increase fractionation of NS1 mSPE-7 IgE, run again on Superdex 200 Increase with inline light scattering and refractometer
[2] = target: mSPE-7 IgE from the NS1 hybridoma (mouse anti-dinitrophenyl IgE) (mouse); conditions: scale: % of the unpurified Sigma SPE-7 IgE's activity
[3] = target: Sigma mSPE-7 IgE (commercial mouse monoclonal anti-dinitrophenyl IgE, SPE-7, from Sigma) (mouse); conditions: scale: % of the activity of the unpurified Sigma SPE-7 IgE

Row | Substance | stoichiometry N [1] | degranulation of RBL-SX38 cells (β-hexosaminidase release) without antigen by peak B (IgE trimer) of NS1 mSPE-7 IgE, against unpurified Sigma SPE-7 IgE [2] | degranulation of RBL-SX38 cells (β-hexosaminidase release) without antigen by component B of Sigma SPE-7 IgE, against unpurified Sigma SPE-7 IgE [3]
1 | mSPE-7 IgE from the NS1 hybridoma (mouse anti-dinitrophenyl IgE) (antibody) | 3 | 55 | 
2 | Sigma mSPE-7 IgE (commercial mouse monoclonal anti-dinitrophenyl IgE, SPE-7, from Sigma) (antibody) |  |  | 65
